Patent US20100129800A1, “POLYMERS AND THEIR USE AS FLUORESCENT LABELS” (priority 2007, published 2010)
Ends that are not written are not given here. Nct = N-((2S,3R)-1,3-dihydroxybutan-2-yl)-(4a,10a-dihydro-10,11-diazabenzo[b]fluoren-10-yl)acetamide monomer; Qut = N-(1,3-dihydroxybutan-2-yl)-10H-indolo[3,2-d]quinoline-11-carboxamide monomer; Pht = N-((2S,3R)-1,3-dihydroxybutan-2-yl)-2-phenylquinoline-4-carboxamide monomer; Act = N-(1,3-dihydroxybutan-2-yl)acridine-9-carboxamide monomer; code p = not defined here; Agt = not defined here; Qgt = not defined here

What was measured:
Assay type in all cases: physicochemical
[1] = Fluorescence properties of the new compounds (excitation and emission wavelengths); conditions: free compound
[2] = Fluorescent properties of duplexes carrying fluorophores at the 3′-end; conditions: oligonucleotide duplex carrying fluorophore at the 3′-end
Procedure: Solid supports carrying oligomers with L-threoninol and 3-aminopropan-1,2-diol backbones were introduced on a DNA synthesizer and oligonucleotides were assembled using standard protocols. After the assembly of the desired DNA sequence, supports were treated with concentrated ammonia at 55° C. for a minimum of 6 hrs yielding oligonucleotides carrying oligomers of fluorophores at the 3′-end.
Two oligonucleotide sequences were synthetized (sequence 1: 5′-[…]-3′ sequence 2: 5′-[…]-3′) carrying different fluorophores at the 3′-end. Solid supports containing dimer and trimer fluorophores (prepared in examples 28-31) and standard protocols for oligonucleotide synthesis were used in order to obtain these modified oligonucleotides (Table 2). Ammonia deprotection was performed at 55° C. for 6 hours. The resulting solutions were concentrated to dryness. Then, the residue was dissolved in water and desalted through a NAP-10 column. Fractions containing oligonucleotides were analysed by HPLC and characterized by UV and MS spectrometry.
Next, the fluorescent properties of duplexes carrying fluorophores at the 3′-end was determined and the results are shown in Table 3: […]

duplex structure of DNA = assay: Melting experiments (DNA-duplex stabilization); conditions: 1 M NaCl, 10 mM sodium phosphate buffer of pH=7; for Tm(° C.): 260 nm, 1° C./min; for ΔTm (° C.): versus unmodified oligonucleotide
Procedure: Appropriate oligonucleotides were dissolved in a solution containing 1 M NaCl, 10 mM sodium phosphate buffer of pH=7. UV Absorption spectra and melting experiments (absorbance vs temperature) were recorded in 1-cm path length cell by using a spectrophotometer, with a temperature controller and a programmed temperature increase rate of 1° C./min. Melting curves were recorded at 260 nm, and melting temperatures were measured at the maximum of the first derivatives of the melting curves.

Molecule | Fluorescence Excitation (nm) [1] [nm] | Fluorescence emission (nm) [1] [nm] | Emission (nm) [2] [nm] | Excitation (nm) [2] [nm] | Tm(° C.) (duplex structure of DNA) [°C] | ΔTm (° C.) (duplex structure of DNA)
CC(=O)N[C@@H](CCCNC(=O)CNC(=O)c1c2ccccc2nc2ccccc12)C(=O)N[C@@H](CCCNC(=O)CNC(=O)c1c2ccccc2nc2ccccc12)C(=O)N[C@@H](CCCNC(=O)CNC(=O)c1c2ccccc2nc2ccccc12)C(N)=O [Example 68, N^4-Acetyl-5-N-{2-(acridine-9-carboxamide)acetyl}ornithinyl-5-N-{2-(acridine-9-carboxamide)acetyl}ornithinyl-5-N-{2-(acridine-9-carboxamide)acetyl}ornithinamide] | 360 | 435 | – | – | – | –
CC(=O)N[C@@H](CCCNC(=O)CNC(=O)c1c2ccccc2nc2ccccc12)C(=O)N[C@@H](CCCNC(=O)CNC(=O)c1c2ccccc2nc2c1[nH]c1ccccc12)C(=O)N[C@@H](CCCNC(=O)CNC(=O)c1c2ccccc2nc2ccccc12)C(N)=O [Example 69, N^4-Acetyl-5-N-{2-(acridine-9-carboxamide)acetyl}ornithinyl-5-N-{2-(10H-indolo[3,2-b]quinoline-11-carboxamide)acetyl}ornithinyl-5-N-{2-(acridine-9-carboxamide)acetyl}ornithinamide] | 357 | 441 | – | – | – | –
CC(=O)N[C@@H](CCCNC(=O)CNC(=O)c1c2ccccc2nc2ccccc12)C(=O)N[C@@H](CCCNC(=O)CNC(=O)c1c2ccccc2nc2c1[nH]c1ccccc12)C(=O)N[C@@H](CCCNC(=O)CNC(=O)c1c2ccccc2nc2c1[nH]c1ccccc12)C(N)=O [Example 70, N^4-Acetyl-5-N-{2-(acridine-9-carboxamide)acetyl}ornithinyl-5-N-{2-(10H-indolo[3,2-b]quinoline-11-carboxamide)acetyl}ornithinyl-5-N-{2-(10H-indolo[3,2-b]quinoline-11-carboxamide)acetyl}ornithinamide] | 248 | – | – | – | – | –
CC(=O)N[C@@H](CCCNC(=O)CNC(=O)c1c2ccccc2nc2c1[nH]c1ccccc12)C(=O)N[C@@H](CCCNC(=O)CNC(=O)c1c2ccccc2nc2c1[nH]c1ccccc12)C(=O)N[C@@H](CCCNC(=O)CNC(=O)c1c2ccccc2nc2c1[nH]c1ccccc12)C(N)=O [Example 71, N^4-Acetyl-5-N-{2-(10H-indolo[3,2-b]quinoline-11-carboxamide)acetyl}ornithinyl-5-N-{2-(10H-indolo[3,2-b]quinoline-11-carboxamide)acetyl}ornithinyl-5-N-{2-(10H-indolo[3,2-b]quinoline-11-carboxamide)acetyl}ornithinamide] | 338 | 466 | – | – | – | –
TTCCGGAA-p-Act-p-Pht: oligonucleotide 5′-TTCCGGAA-3′ carrying dimer Act-p-Pht at the 3′-end (DNA TTCCGGAA-{code p-Act-code p-Pht}; not fully specified; cysteine pairing not given here; reading uncertain; also: DNA oligonucleotide with 3'-Act-p-Pht dimer) | – | – | 440 | 336 | 43 | +8 °C
TTCCGGAA-p-Act-p-Qut-p-Nct: oligonucleotide 5′-TTCCGGAA-3′ carrying trimer Act-p-Qut-p-Nct at the 3′-end (DNA TTCCGGAA-{code p-Act-code p-Qut-code p-Nct}; not fully specified; cysteine pairing not given here; reading uncertain; also: DNA oligonucleotide with 3'-Act-p-Qut-p-Nct trimer) | – | – | – | – | 60 | +25 °C
TTCCGGAA-p-Act-p-Qut-p-Qut: oligonucleotide 5′-TTCCGGAA-3′ carrying trimer Act-p-Qut-p-Qut at the 3′-end (DNA TTCCGGAA-{code p-Act-code p-Qut-code p-Qut}; not fully specified; cysteine pairing not given here; reading uncertain; also: DNA oligonucleotide with 3'-Act-p-Qut-p-Qut trimer) | – | – | 436 | 352 | 44 | +9 °C
TTCCGGAA-p-Act-p-Qut: oligonucleotide 5′-TTCCGGAA-3′ carrying dimer Act-p-Qut at the 3′-end (DNA TTCCGGAA-{code p-Act-code p-Qut}; not fully specified; cysteine pairing not given here; reading uncertain; also: DNA oligonucleotide with 3'-Act-p-Qut dimer) | – | – | 485 | 351 | 44 | +9 °C
TTCCGGAA-p-Act: oligonucleotide 5′-TTCCGGAA-3′ carrying fluorophore Act at the 3′-end (DNA TTCCGGAA-{code p-Act}; not fully specified; cysteine pairing not given here; reading uncertain; also: DNA oligonucleotide with 3'-phosphate-linked Act) | – | – | – | – | 47 | +12 °C
TTCCGGAA-p-Agt: oligonucleotide 5′-TTCCGGAA-3′ carrying fluorophore Agt at the 3′-end (DNA TTCCGGAA-{code p-Agt}; not fully specified; cysteine pairing not given here; reading uncertain; also: DNA oligonucleotide with 3'-phosphate-linked Agt) | – | – | – | – | 47 | +12 °C
TTCCGGAA-p-Nct: oligonucleotide 5′-TTCCGGAA-3′ carrying fluorophore Nct at the 3′-end (DNA TTCCGGAA-{code p-Nct}; not fully specified; cysteine pairing not given here; reading uncertain; also: DNA oligonucleotide with 3'-phosphate-linked Nct) | – | – | 442 | 267 | 46 | +11 °C
TTCCGGAA-p-Pht: oligonucleotide 5′-TTCCGGAA-3′ carrying fluorophore Pht at the 3′-end (DNA TTCCGGAA-{code p-Pht}; not fully specified; cysteine pairing not given here; reading uncertain; also: DNA oligonucleotide with 3'-phosphate-linked Pht) | – | – | – | – | 41 | +6 °C
TTCCGGAA-p-Qgt: oligonucleotide 5′-TTCCGGAA-3′ carrying fluorophore Qgt at the 3′-end (DNA TTCCGGAA-{code p-Qgt}; not fully specified; cysteine pairing not given here; reading uncertain; also: DNA oligonucleotide with 3'-phosphate-linked Qgt) | – | – | 491 | 350 | 50 | +15 °C
TTCCGGAA-p-Qut-p-Qut: oligonucleotide 5′-TTCCGGAA-3′ carrying dimer Qut-p-Qut at the 3′-end (DNA TTCCGGAA-{code p-Qut-code p-Qut}; not fully specified; cysteine pairing not given here; reading uncertain; also: DNA oligonucleotide with 3'-Qut-p-Qut dimer) | – | – | 490 | 349 | 48 | +13 °C
TTCCGGAA-p-Qut: oligonucleotide 5′-TTCCGGAA-3′ carrying fluorophore Qut at the 3′-end (DNA TTCCGGAA-{code p-Qut}; not fully specified; cysteine pairing not given here; reading uncertain; also: DNA oligonucleotide with 3'-phosphate-linked Qut) | – | – | 492 | 349 | 44 | +9 °C
